From the Human Domainome abundance scans (Beltran et al. 2025)

B1: Steroid hormone receptor ERR2, residues 100 to 176; numbered along this chain, O95718 (parent)
chain: KRLCLVCGDIASGYHYGVASCEACKAFFKRTIQGNIEYSCPATNECEITKRRRKSCQACRFMKCLKVGMLKEGVRLD

Variants of: B1
Assay: abundance fitness (aPCA) (normalised: wild type 0, dead -1); higher = more abundant; growth selection in yeast, the domain comes from the species named
Conditions: Homo sapiens

Abundance fitness, by site and new letter:
I32: A -0.21; G -0.344; M -0.47; T -0.222; P -0.589; F -0.115; C -0.803; Q -0.422; L -0.362; S -0.184; E -0.148; N -0.568; D -0.642; K -0.337; V 0.055
S39: D 0.441; L 0.283; F 0.374; E 0.303; C 0.189; G 0.19; K 0.305; H 0.103; I 0.19; A 0.319
A26: I -0.334; S -0.338; P -0.569; C -0.046; E 0.162; V 0.114; M -0.116; W -0.075; L -0.135; D 0.035; Y -0.561; H 0.095; F -0.467; K -0.229; N -0.504; Q 0.051; G 0.121
R30: A -0.312; F -0.763; N -0.381; I -0.775; G -0.006; W -0.121; L -0.466; M -0.355; E 0.125; D -0.255; Y -0.799; Q 0.109; P -0.989; C -0.573; T -0.193; H -0.357
C21: W -0.94; G -0.866; R -0.761; L -0.625; D -0.518; V -0.818; Y -0.89; T -0.871; K -0.679; E -0.814; F -1.04; N -1; I -0.693; Q -1.01; S -0.532; M -0.961
A23: D 0.049; L -0.371; P 0.023; K -0.03; H -0.16; F -0.538; Q -0.039; G 0.321; Y -0.56; V -0.014; E 0.094; C 0.094; R 0.166; T -0.376; I -0.806; N -0.658
E37: H -0.19; Y -0.745; D -0.423; N -0.575; R -0.371; Q -0.41; F -0.851; G -0.122; P -0.507; K -0.532; C -0.158; I -0.341; T -0.796; W -0.543; L -0.657; M -0.654
N35: C -0.12; Q 0.05; W -0.298; E 0.157; G 0.271; I -0.593; M -0.317; V -0.133; F -0.275; Y -0.178; L -0.298; H 0.031; P 0.012; R -0.047; K 0.027; S -0.129; A 0.069; T -0.017; D 0.111
E22: N 0.322; S -0.154; K -0.443; W -0.142; V -0.131; Q -0.092; P -0.188; H -0.091; I -0.459; L -0.233; Y -0.152; T -0.19; A 0.012; F -0.449
G34: H -0.282; V -0.186; E 0.157; N -0.058; A 0.135; W -0.08; D 0.116; Q 0.254; M -0.041; F 0.144; I -0.336; R -0.033; Y 0.075; T -0.088; C -0.227; P -0.904
K25: E 0.41; L 0.224; A 0.445; D 0.375; M 0.286; G 0.41; C 0.284; V 0.344; H 0.262; F 0.194; T 0.146; Q 0.317; R 0.208; I 0.091; Y 0.273; P 0.278; S 0.222
F27: Q -0.945; D -0.751; A -0.621; K -0.506; H -0.765; G -0.745; L -0.204; V -0.535; W -0.578; P -0.573; N -1.01; M -0.473; I -0.434; R -0.715; S -0.746; C -0.119
C24: T -1; R -0.744; P -1.13; N -0.939; G -0.903; M -0.859; I -0.707; L -0.787; Q -0.685; A -0.897; Y -0.837; S -0.869; K -1.07; W -0.784; V -0.906; D 0.265
K29: F -0.132; T 0.215; A 0.18; Q 0.129; R 0.085; I -0.481; M -0.064; C -0.335; D -0.014; P -0.841; N -0.193; H -0.067; V 0.079; Y -0.65; G 0.096; E 0.217; S 0.084
F28: Y -0.78; C -0.843; G -0.687; E -0.638; L -0.413; S -0.832; W 0.167; P -0.725; K -0.694; V -0.315; Q -0.761; A -0.321; R -0.757; T -0.664; H -0.748; N -0.922
T31: F -1.1; S -0.175; M -0.223; C -0.423; A -0.353; G -0.484; V -0.223; I -0.295; W -0.925; H -0.655; N -0.546; P -0.951; E -0.744; R -0.678; L -0.83; D -0.724
A19: M -0.117; N 0.005; T -0.085; S 0.049; W -0.307; Y -0.223; P -0.065; R -0.331; Q -0.113; V 0.035
Y38: K -0.725; A -0.554; H -0.196; E -0.586; R -0.347; M -0.548; V -0.541; C -0.293; F -0.037; P -0.547; I -0.421; T -0.636; L -0.398; D -0.979; Q -0.841; W 0.097; S -0.518; G -0.394
S20: P -0.321; V 0.34; A 0.353; K -0.218; D -0.218; G 0.282; C 0.414; Y -0.109; Q -0.007; N 0.131; M -0.322; W -0.052; T 0.346; F -0.485; E -0.232; L -0.185; R -0.381; I 0.26
Q33: K -0.212; R -0.307; G -0.165; D -0.081; M -0.279; L -0.146; Y -0.054; V -0.148; S -0.252; T -0.193; N -0.383; I -0.697; F -0.577; A -0.075; W -0.411; C -0.114; H -0.229; E -0.03
I36: C -0.037; M -0.074; H -0.167; F -0.095; A -0.032; K -0.129; Q -0.16; W -0.231; G -0.273; Y -0.235; P -0.182; N -0.185; L -0.162; R -0.26; D -0.062; T -0.288; V 0.003
